Blank lines part the entries; values can stand above or below the molecule they belong to. Where no end group is shown, it is not given here.
Assays:
[1] = biological target: SorLA extracellular domain (immobilized on the Biacore chip) (Homo sapiens) (UniProt Q92673); assay: SPR, immobilized SorLA
[2] = biological target: SorLA extracellular domain (immobilized on the Biacore chip) (Homo sapiens) (UniProt Q92673); assay: SPR (Biacore), SorLA immobilized; series of 20, 50, 100 and 200 nM
[3] = biological target: SorLA extracellular domain (immobilized on the Biacore chip) (Homo sapiens) (UniProt Q92673); assay: SPR, GFRα1 over immobilized SorLA extracellular domain
[4] = biological target: SorLA expressed on cells (stably transfected HEK293 cells; SY5Y neuroblastoma cells, endogenous or overexpressed) (Homo sapiens) (UniProt Q92673); assay: FRET on non-permeabilized fixed cells, SorLA acceptor, GFRα1 donor
[5] = biological target: T1, SorLA extracellular domain (immobilized on the Biacore chip) (Homo sapiens, UniProt Q92673 82-2137); assay: SPR (Biacore), SorLA immobilized; GST fusion protein, concentration not given
T1 construct: also called immobilized SorLA; LR11
Excerpt: (A) fusion proteins between GST and the GDNF propeptide (GDNFpropep), the N-terminal 38 amino acids of mature GDNF (GDNFN-term), or the GDNF propeptide followed by the first 38 amino acids of mature GDNF (GDNFN-term propep) binding to immobilized SorLA. GST alone is included as negative control. (B) a peptide encompassing the first 38 amino acids of mature GDNF binds to SorLA in concentration-dependent manner.

[6] = biological target: T1, SorLA extracellular domain (immobilized …); assay: SPR, immobilized SorLA
[7] = biological target: T1, SorLA extracellular domain (immobilized …); assay: SPR (Biacore), SorLA immobilized; SorLApro 10 uM by the legend, injected before GDNF in the inhibition experiment
Description: (§1) (A) The domain structure of SorLA is depicted. (B) GDNF binds to immobilized SorLA in a concentration-dependent manner as shown by SPR. […] (C) SorLA binding is selective for GDNF and not the other GDNF family ligands, artemin, neuturin, and persephin. The neurotrophic factor concentrations used are 20 nM. (D) The interaction is mediated by the mature part of GDNF and not the GDNF propeptide (GDNFpro). Sensorgrams of 100 nM ligand concentration are shown. […] (G-H) Internalization of 50 nM GDNF by 293 cells or 293 cells stably expressing SorLA. Internalized GDNF (green) was visualized by immunofluorescense. (I) GDNF internalization was inhibited by excess neurotensin (NT, 20 μM).

[8] = biological target: T1, SorLA extracellular domain (immobilized …); assay: SPR, immobilized SorLA (title of Fig. 17)
[9] = biological target: T1, SorLA extracellular domain (immobilized …); assay: SPR, GDNF over immobilized SorLA; lower end of the range
Description: as §1

[10] = biological target: T1, SorLA extracellular domain (immobilized …); assay: SPR, GDNF over immobilized SorLA; upper end of the range
Description: as §1

Chain of SorLA extracellular domain (immobilized on the Biacore chip) (Homo sapiens) (Q92673 82-2137 limits assumed): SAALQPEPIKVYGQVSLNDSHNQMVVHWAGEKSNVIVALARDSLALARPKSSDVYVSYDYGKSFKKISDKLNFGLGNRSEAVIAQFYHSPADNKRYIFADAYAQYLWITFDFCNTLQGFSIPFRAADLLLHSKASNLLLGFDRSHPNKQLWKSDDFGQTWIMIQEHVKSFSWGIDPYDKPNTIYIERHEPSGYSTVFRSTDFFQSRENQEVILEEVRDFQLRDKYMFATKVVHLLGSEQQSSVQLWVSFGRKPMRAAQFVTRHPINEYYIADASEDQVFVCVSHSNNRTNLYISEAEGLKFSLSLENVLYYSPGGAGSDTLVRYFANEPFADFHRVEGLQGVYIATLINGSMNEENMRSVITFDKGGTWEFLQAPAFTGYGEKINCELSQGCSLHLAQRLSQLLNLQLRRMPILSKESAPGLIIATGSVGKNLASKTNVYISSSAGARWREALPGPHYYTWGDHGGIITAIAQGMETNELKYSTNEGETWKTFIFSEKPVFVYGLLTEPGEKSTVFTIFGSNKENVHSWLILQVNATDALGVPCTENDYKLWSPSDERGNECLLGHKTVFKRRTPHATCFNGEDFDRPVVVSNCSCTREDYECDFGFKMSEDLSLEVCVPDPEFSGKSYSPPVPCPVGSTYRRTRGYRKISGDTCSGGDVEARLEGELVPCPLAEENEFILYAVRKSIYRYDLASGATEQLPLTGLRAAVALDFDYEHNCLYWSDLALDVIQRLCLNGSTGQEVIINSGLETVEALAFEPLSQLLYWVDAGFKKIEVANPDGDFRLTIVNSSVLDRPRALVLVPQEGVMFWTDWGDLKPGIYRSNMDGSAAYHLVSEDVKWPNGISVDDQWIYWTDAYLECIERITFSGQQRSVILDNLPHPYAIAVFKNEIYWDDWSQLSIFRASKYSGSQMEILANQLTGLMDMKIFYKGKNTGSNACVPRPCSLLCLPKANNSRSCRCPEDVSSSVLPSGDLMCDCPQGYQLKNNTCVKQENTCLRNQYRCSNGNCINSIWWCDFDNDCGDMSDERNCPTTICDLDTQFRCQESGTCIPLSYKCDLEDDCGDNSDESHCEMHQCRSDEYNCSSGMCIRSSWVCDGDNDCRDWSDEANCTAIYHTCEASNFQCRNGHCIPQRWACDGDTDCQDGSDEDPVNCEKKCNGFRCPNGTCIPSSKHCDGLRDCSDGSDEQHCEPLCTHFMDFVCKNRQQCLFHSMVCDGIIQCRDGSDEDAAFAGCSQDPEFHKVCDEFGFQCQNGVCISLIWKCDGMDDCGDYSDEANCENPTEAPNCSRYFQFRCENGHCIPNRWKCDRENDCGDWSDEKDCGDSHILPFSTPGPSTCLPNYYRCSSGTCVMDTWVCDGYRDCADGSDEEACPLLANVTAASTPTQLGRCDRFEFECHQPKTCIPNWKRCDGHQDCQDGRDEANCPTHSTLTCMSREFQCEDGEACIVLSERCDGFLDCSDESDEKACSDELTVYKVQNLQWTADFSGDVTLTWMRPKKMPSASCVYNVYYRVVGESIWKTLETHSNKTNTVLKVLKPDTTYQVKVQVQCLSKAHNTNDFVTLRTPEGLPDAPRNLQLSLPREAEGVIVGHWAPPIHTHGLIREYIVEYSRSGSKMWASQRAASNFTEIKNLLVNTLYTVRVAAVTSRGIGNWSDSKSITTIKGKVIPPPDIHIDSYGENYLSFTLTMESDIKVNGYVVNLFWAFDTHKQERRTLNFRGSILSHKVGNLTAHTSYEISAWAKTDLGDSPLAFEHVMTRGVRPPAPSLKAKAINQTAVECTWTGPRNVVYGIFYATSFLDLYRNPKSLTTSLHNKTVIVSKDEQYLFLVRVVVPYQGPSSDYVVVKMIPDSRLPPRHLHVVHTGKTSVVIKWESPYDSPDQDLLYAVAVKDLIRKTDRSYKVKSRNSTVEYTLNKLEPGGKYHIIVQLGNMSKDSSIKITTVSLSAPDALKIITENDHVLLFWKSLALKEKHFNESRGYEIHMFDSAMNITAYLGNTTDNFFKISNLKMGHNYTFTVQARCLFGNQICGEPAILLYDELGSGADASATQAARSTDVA
T1 sequence (Q92673 82-2137 limits assumed): as above
Chain of SorLA expressed on cells (stably transfected HEK293 cells; SY5Y neuroblastoma cells, endogenous or overexpressed) (Homo sapiens) (Q92673 82-2214 limits assumed): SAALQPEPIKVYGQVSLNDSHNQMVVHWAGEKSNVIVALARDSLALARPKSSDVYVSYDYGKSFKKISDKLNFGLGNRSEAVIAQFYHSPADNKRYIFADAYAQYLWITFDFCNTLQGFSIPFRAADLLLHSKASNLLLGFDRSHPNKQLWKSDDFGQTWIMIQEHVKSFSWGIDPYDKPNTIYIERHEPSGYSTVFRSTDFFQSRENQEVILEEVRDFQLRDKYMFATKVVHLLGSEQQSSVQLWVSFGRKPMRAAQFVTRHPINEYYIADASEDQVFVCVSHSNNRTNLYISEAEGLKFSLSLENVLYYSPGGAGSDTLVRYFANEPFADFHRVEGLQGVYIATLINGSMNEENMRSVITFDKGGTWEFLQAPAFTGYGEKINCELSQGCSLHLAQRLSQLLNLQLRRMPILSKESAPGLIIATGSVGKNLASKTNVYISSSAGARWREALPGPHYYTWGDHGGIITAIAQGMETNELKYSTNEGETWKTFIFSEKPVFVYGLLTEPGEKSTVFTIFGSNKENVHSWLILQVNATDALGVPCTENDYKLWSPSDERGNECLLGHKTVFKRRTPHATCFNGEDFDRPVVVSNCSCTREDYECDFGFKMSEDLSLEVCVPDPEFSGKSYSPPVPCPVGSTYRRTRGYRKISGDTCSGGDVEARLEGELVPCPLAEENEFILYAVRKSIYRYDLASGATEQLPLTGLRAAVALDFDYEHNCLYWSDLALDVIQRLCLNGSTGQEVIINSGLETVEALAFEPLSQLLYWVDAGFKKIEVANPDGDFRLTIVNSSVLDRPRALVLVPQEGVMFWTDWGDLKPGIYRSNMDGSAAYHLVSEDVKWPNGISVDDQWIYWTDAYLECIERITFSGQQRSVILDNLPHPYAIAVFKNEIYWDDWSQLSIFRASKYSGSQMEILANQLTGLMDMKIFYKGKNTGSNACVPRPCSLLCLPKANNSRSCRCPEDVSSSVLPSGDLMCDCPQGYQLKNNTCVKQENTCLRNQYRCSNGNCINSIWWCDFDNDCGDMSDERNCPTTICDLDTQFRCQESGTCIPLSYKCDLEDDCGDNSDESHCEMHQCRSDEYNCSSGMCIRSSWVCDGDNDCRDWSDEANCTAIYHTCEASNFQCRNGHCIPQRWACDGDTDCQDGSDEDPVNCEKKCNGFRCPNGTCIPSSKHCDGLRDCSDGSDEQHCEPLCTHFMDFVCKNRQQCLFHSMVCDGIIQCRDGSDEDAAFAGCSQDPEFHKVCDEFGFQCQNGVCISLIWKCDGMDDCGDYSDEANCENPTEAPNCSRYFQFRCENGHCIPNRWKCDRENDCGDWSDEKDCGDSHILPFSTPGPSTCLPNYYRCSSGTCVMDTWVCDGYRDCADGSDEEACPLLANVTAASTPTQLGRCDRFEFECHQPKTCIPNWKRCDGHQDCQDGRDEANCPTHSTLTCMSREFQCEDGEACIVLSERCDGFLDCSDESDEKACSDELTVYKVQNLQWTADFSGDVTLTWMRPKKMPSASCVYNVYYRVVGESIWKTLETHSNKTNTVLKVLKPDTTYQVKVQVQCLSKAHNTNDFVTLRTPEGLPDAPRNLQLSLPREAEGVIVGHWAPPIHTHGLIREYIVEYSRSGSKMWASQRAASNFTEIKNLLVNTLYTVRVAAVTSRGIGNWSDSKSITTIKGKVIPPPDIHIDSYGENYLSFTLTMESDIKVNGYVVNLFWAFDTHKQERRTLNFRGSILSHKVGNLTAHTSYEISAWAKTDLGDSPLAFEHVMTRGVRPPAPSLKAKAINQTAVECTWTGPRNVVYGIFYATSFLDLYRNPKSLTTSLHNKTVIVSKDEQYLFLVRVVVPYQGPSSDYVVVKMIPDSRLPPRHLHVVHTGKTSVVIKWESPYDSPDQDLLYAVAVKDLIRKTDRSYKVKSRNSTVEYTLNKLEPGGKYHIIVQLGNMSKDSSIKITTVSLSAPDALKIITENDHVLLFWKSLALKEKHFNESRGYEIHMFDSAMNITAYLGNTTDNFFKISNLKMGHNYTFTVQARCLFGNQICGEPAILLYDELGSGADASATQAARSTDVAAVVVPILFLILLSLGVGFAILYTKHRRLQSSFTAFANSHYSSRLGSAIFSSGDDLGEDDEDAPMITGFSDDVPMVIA

Molecule: N-terminal truncated soluble GFRα1 variant lacking domain 1 (from UniProt P56159 145-429) (receptor)
Kd [1]: 120 nM

Molecule: GFRα1 expressed on cells (stably transfected HEK293 cells) (from UniProt P56159 25-429) (receptor)
mean Eapp% [4]: 16%

B1: GDNFN-term propep (other, not shown: a dimerising Fc or GST; large carriers; small tags and cut ends)
chain: FPLPAGKRPPEAPAEDRSLGRRRAPFALSSDSNMPEDYPDQFDDVMDFIQATIKRLKRSPDKQMAVLPRRERNRQAAAANPENSRGKGRRGQRGKN
notes: also called GST fusion of the GDNF propeptide followed by the first 38 amino acids of mature GDNF
binding result [5]: binds

B4: SorLA propeptide (peptide)
peptide: EVWTQRLHGGSAPLPQDRGFLVVQGDPRELRLWARGDARGASRADEKPLRRKR
binding result [7]: binds

B5: GDNFN-term (other)
chain: SPDKQMAVLPRRERNRQAAAANPENSRGKGRRGQRGKN
modifications: also: GST fusion partner (letters not given here)
notes: also called GST fusion of the N-terminal 38 amino acids of mature GDNF; not shown: GST fusion partner and any linker to it
binding result [5]: binds

B6: peptide encompassing the first 38 amino acids of mature GDNF (peptide)
peptide: SPDKQMAVLPRRERNRQAAAANPENSRGKGRRGQRGKN
notes: also called N-terminal 38 amino acids of mature GDNF
binding result [8]: binds

B10: Glia cell-derived neurotrophic factor (GDNF) (ligand)
chain: SPDKQMAVLPRRERNRQAAAANPENSRGKGRRGQRGKNRGCVLTAIHLNVTDLGLGYETKEELIFRYCSGSCDAAETTYDKILKNLSRNRRLVSDKVGQACCRPIAFDDDLSFLDDNLVYHILRKHSAKRCGCI
notes: also called mature GDNF
Kd [9]: ≥ 3 nM
Kd [10]: ≤ 8 nM

More lines, now with the values ahead:

Kd [1]: 12 nM
Kd [2]: 10 nM
Kd [3]: 6 nM
Molecule: soluble full length GFRα1 (from UniProt P56159 25-429) (receptor)

binding result [5]: no binding
B2: GDNFpropep (other)
fusion protein: FPLPAGKRPPEAPAEDRSLGRRRAPFALSSDSNMPEDYPDQFDDVMDFIQATIKRLKR
notes: also called GST fusion of the GDNF propeptide

binding result [6]: no binding (tested: 100 nM)
B3: GDNF propeptide (peptide)
peptide: FPLPAGKRPPEAPAEDRSLGRRRAPFALSSDSNMPEDYPDQFDDVMDFIQATIKRLKR

binding result [6]: no binding (tested: 20 nM)
B7: neuturin (neurturin) (ligand, UniProt Q99748 96-197, looked up)
chain: ARLGARPCGLRELEVRVSELGLGYASDETVLFRYCAGACEAAARVYDLGLRRLRQRRRLRRERVRAQPCCRPTAYEDEVSFLDAHSRYHTVHELSARECACV
notes: also called NRTN

binding result [6]: no binding (tested: 20 nM)
B8: persephin (ligand, UniProt O60542 61-156, looked up)
chain: ALSGPCQLWSLTLSVAELGLGYASEEKVIFRYCAGSCPRGARTQHGLALARLQGQGRAHGGPCCRPTRYTDVAFLDDRHRWQRLPQLSAAACGCGG
notes: also called PSPN

binding result [6]: no binding (tested: 20 nM)
B9: artemin (ligand, UniProt Q5T4W7 108-220, looked up)
chain: AGGPGSRARAAGARGCRLRSQLVPVRALGLGHRSDELVRFRFCSGSCRRARSPHDLSLASLLGAGALRPPPGSRPVSQPCCRPTRYEAVSFMDVNSTWRTVDRLSATACGCLG
notes: also called ARTN
